Test results reported in the Immune Epitope Database (IEDB).

Target: HLA-A*68:02
Assay: IEDB peptide-MHC binding, purified MHC/competitive/radioactivity; ≥ and ≤ were set here for values at or beyond the usual limits of such assays
Conditions: source organism: Vaccinia virus WR

Sequence | IC50 [nM]
CIVAAVIIM | 4440
DAMIHKTYI | 87
DINVIGLIV | 2270
DITNILGGV | 12
DITNILGGVL | 515
EAFETQSGAL | 68
GLIVILFIM | 1380
LTKDRKMLEL | 4840
NTITTFIPI | 1.2
NVTYNIKPV | 376
RTIDAINKCV | 289
RTWKVLSIM | 4130
SASDMQKFTI | 487
STFNMWREI | 20
STIANSNII | 35
STVDVRNIV | 18
YASLTTIGTI | 133

Target: HLA-A*02:03
Assay: as above
Conditions: source organism: Influenza A virus

Sequence | IC50 [nM]
AAMDDFQLI | 1730
VNPTLLFLKV | 2810

Same assay, conditions: source organism: Vaccinia virus WR

Sequence | IC50 [nM]
AVTLNRIKI | 3340
CALVSDCAST | 146
CIVAAVIIM | 1420
DAMIHKTYI | 1520
DINVIGLIV | 4040
DITNILGGV | 1640
DITNILGGVL | 3680
DLKHATDYIA | 2960
DLLLPSTDV | 3900
EAFETQSGAL | 995
FAFIDFSKST | 2410
FIISTLNKIL | 1.8
GAAITLVVI | 3280
GALYLGHSA | 1900
GLIVILFIM | 1390
GVLIAGIIL | 1040
ITLVVISVI | 1810
ITPNNLNKI | 876
IVQSVLRDI | 101
KINNNRIVAM | 1300
KTPLYYLSGT | 3110
KTRLFRSPQV | 984
LTKDRKMLEL | 133
LTQVKELGIA | 150
LVQYRILPM | 1170
LVQYRILPMI | 1200

Sequence | IC50 [nM]
NIKPVIVPDI | 745
NINIEVKLFI | 2050
NTITTFIPI | 988
NVTYNIKPV | 153
QQLCTMERT | 4520
QVKELGIAI | 882
RTIDAINKCV | 334
RTWKVLSIM | 2630
SASDMQKFTI | 1220
SIGFEARIV | 575
STFNMWREI | 713
STIANSNII | 1470
STVDVRNIV | 3480
TQVKELGIA | 52
VAMLLTHGA | 628
VIDRLPSET | 742
VILKDPRIA | 603
VLEKKVCAI | 2310
VQLPKRGVRV | 2210
VQLSNNKYV | 541
VTDKTAYIGT | 4000
VTLNRIKIA | 407
YASLTTIGTI | 398
YIWIKNLET | 1180
YVILKDPRIA | 355

Target: HLA-A*02:06
Assay: as above
Conditions: source organism: Influenza A virus

Sequence | IC50 [nM]
AAMDDFQLI | 99

Same assay, conditions: source organism: Vaccinia virus WR

Sequence | IC50 [nM]
CALVSDCAST | 2600
DLKHATDYIA | 1050
DLLLPSTDV | 1060
FAFIDFSKST | 1410
FIISTLNKIL | 8.1
GAAITLVVI | 2950
GALYLGHSA | 792
GVLIAGIIL | 951
ITLVVISVI | 1030
ITPNNLNKI | 409
IVQSVLRDI | 1310
KINNNRIVAM | 3180
KTPLYYLSGT | 1420
KTRLFRSPQV | 433
LTQVKELGIA | 18
LVQYRILPM | 4670
LVQYRILPMI | 712
NIKPVIVPDI | 945
NINIEVKLFI | 2320
NVTYNIKPV | 855

Sequence | IC50 [nM]
QQLCTMERT | 929
QVKELGIAI | 3710
RTIDAINKCV | 341
SASDMQKFTI | 4250
SIGFEARIV | 1310
STFNMWREI | 95
STIANSNII | 1240
STVDVRNIV | 1630
TQVKELGIA | 56
VAMLLTHGA | 726
VIDRLPSET | 3670
VILKDPRIA | 318
VLEKKVCAI | 3390
VQLPKRGVRV | 41
VQLSNNKYV | 214
VTDKTAYIGT | 227
VTLNRIKIA | 625
YASLTTIGTI | 84
YIWIKNLET | 347
YVILKDPRIA | 1900

Target: HLA-A*02:01
Assay: as above
Conditions: source organism: Influenza A virus

Sequence | IC50 [nM]
VNPTLLFLKV | 3720

Same assay, conditions: source organism: Vaccinia virus WR

Sequence | IC50 [nM]
AVTLNRIKI | 1150
CALVSDCAST | 149
CIVAAVIIM | 1580
DINVIGLIV | 387
DLLLPSTDV | 1480
FIISTLNKIL | 170
GAAITLVVI | 1080
GLIVILFIM | 1660
GVLIAGIIL | 545
ITLVVISVI | 551
LTKDRKMLEL | 3430
LVQYRILPMI | 2540
NINIEVKLFI | 1170
NTITTFIPI | 857
RTWKVLSIM | 840
VIDRLPSET | 3500
VILKDPRIA | 697
VLEKKVCAI | 1370
VQLPKRGVRV | 1640
VQLSNNKYV | 1820
VTLNRIKIA | 1100
